Source: patent publication US20250215105A1 (published 2025)
Positions count from the first letter of the chain named.

B1: Tre_291_sc (antibody, V domains shown)
VH: QVQLKQSGPGLVQPSQSLSITCTVSGFSLTSYGVHWVRQSPGKGLEWLGVIWRRGSTDYNAAFMSRLSITKDTSKSQVFFKMNSLQTDDTAIYYCAGVRGDAMDYWGQGTSVTVSS
VL: DIVMTQSHKSMSTSVGDRVSVTCKASQNVGTNVAWYQQKPGQSPKALIYSASYRYSGVPDRFTGSGSGTDFTLTISNVQSEDLAEYFCQQYNSYPLTFGGGTKLEIK
B2: HuP4_51_sc (antibody, V domains shown)
VH: QVQLVESGGGVVQPGGSLRLSCVVSGFSLTNYGVHWVRQAPGKGLEWLGVILRRGSTDYNAAFMSRLAISKDNSKNTVYLELNSLRLDDTAVYYCAKTAVVAGDYFDYWGQGTTVTVSS
VL: B1 VL with H8Q, S10F, V21I, A46L, V78M, E85D
B3: HuP4_11_sc (antibody, V domains shown)
VH: EVQLVESGGALVQPGRSLRLSCAVSGFTLSNYGVHWVRQAPGKGLEWVAVILRRGSTDYNAAFMSRFTISKDNSKNTVYLQMNSLRADDTAVYYCAKTAVVAGDYFDYWGQGTTVTVSS
VL: B1 VL with H8Q, S10F, V21I, A46L, V78M, E85D
B4: I67_sc (antibody, V domains shown)
VH: DVQLQESGPSLVQPSQSLSINCTVSGFSLSSYGVHWVRQSPGKGLEWLGVIWRRGSTDYNAAFMSRLSITKDNSKSQVFFKMNRLQADDTATYYCAKGISTATSWFAYWGQGTLVTVSA
VL: B1 VL with S10F, G100A, I106L
B5: mAnE67_sc (antibody, V domains shown)
VH: EVQLVESGGGLVKPGGSRKLSCAASGFTFSDYGMHWVRQAPEKGLEWVAYISSGSSIIYYADTVKGRFTISRDNAKNTLFLQMTGLRSEDTAMYYCARKDYPYAMDYWGQGTSLAVSS
VL: B1 VL
B6: HuP4_41_sc (antibody, V domains shown)
VH: B2 VH with S28T, G49A
VL: B1 VL with H8Q, S10F, V21I, A46L, V78M, E85D
B7: P4_sc (Fc fusion)
VH: QVQLKESGPSLVQPSQSLSITCTVSGFSLTNYGVHWVRQSPGKGLEWLGVILRRGSTDYNAAFMSRLSITKDNSKSQVFFKMNSLQADDTAIYYCAKTAVVAGDYFDYWGQGTTLTVSS
VL: B1 VL with S10F, G100T
B8: T86_sc (antibody, V domains shown)
VH: QIQLVQSGPELKKPGETVKISCEASGYTFINYGMNWVKQAPGKGLKWMGWINTYTGEPTYADDFKGRFAFSLETSANTAYLQINNLKNEDTATYFCARKGYYGYPNYYAMDYWGQGTSVTVSS
VL: DIVMTQSQKFMSTSVGDRVSITCKASQNVGTAVAWYQQKPGQSPKLLIYSASNRYTGVPDRFTGSGSGTDFTLTISNMQSEDLADYFCQQYSSYPITFGTGTKLEIK
B9: HuP4_IB_sc (Fc fusion)
VH: QVQLLESGPELVKPSATLSITCTVSGFSLTNYGVHWIRQAPGKGLEWLGVILRRGSTDYNAAFMSRFTISKDNSKNQVYFKLRSVTAEDTAVYYCAKTAVVAGDYFDYWGQGTMVTVSS
VL: DIQMTQSHSTLSLSVGDRVTITCKASQNVGTNVAWYQQKPGQPPKALIYSASYRYSGVPSRFSGSGSGTDFTLTISSVQAEDVAVYYCQQYNSYPLTFGPGTKLEIK
B10: 6-3m1 (antibody, V domains shown)
VH: QVQLKQSGAELVKPGASVKLSCTASGFSIKDTYVHWVKQRPEQGLEWIGKIDPANVNTKFDPKFQGKATITADTSSNTAYLQLSSLTSEDTAVYYCALYGYDDDAYYFDYWGQGTTLTVSS
VL: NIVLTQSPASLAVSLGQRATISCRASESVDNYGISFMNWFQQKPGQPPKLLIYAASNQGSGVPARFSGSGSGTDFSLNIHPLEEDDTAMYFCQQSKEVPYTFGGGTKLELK
B11: I-394h4 (antibody, V domains shown)
VH: EVQLQQSGPELVKPGASVKMSCKASGYTFTDYNMHWVKQSHGRTLEWIGYIVPLNGGSTFNQKFKGRATLTVNTSSRTAYMELRSLTSEDSAAYYCARGGTRFAYWGQGTLVTVSA
VL: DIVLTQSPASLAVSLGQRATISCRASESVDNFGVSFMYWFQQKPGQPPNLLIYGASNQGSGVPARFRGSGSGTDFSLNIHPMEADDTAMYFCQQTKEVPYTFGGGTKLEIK
B12: 23-7m1 (antibody, V domains shown)
VH: EVQLQQSGPELEKPGASVKISCKVSGYSFTDYNLNWVKQYNGKNLEWIGNIDPYSGGTRYNQKFKGKATLTIDQSSSTAYMHLKSLTSEDSAVYYCGLYGYDDDANYFDDWGQGTTLTVSS
VL: EIVLTQSPAIMSPSPGEKVTIACSASSSVSYMHWFQQKPGTSPKLWIYATSNLASGVPARFSGSGSGTSYSLTISRMEAEDVATYYCQQRSSYPLTFGAGTKLELK
B13: T-31414h4 (antibody, V domains shown)
VH: QVQLVQSGAEVKKPGASVKVSCKASGYTFKSYEMHWVRQAPGQGLEWMGRINPSVGSTWYAQKFQGRVIMIRDTSTSTVYMELSSLRSEDTAVYYCARGKREGGTEYLRNWGQGTLVTVSS
VL: EIVLIQSPGILSLSPGERATLSCRASQSVSSSYLAWYQQKPGQAPRLLIYGASSRATGIPDRFSGSGSGTDFTLTISRLEPEDFAVYYCQQYHSYITFGGGTKVEIK

Biological target: T1, human CD39 recombinant antigen (UniProt P49961 38-478)
T1 chain: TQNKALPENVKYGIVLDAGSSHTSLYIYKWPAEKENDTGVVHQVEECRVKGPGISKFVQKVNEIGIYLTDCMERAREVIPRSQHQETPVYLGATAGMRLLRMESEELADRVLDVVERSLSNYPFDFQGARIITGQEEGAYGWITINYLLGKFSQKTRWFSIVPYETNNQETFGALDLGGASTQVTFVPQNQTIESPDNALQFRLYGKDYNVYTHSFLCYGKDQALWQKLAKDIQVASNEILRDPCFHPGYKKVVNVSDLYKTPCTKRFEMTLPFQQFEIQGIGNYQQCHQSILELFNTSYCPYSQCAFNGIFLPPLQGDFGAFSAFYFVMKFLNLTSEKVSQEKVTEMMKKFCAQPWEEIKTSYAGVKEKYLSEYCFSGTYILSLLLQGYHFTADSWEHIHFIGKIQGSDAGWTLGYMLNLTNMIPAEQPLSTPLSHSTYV
Assay: SPR

| Binder | Kd [nM] |
| --- | --- |
| B1 | 2.22 |
| B2 | 0.369 |
| B3 | 0.377 |
| B4 | 1.65 |
| B5 | 4.75 |
| B6 | 0.106 |
| B7 | 0.307 |
| B8 | 4.28 |
| B9 | 0.396 |

Biological target: T1, human CD39 recombinant antigen
Assay: SPR
Remark: another data set of the same source

| Binder | Kd [nM] |
| --- | --- |
| B10 | 0.399 |
| B11 | 0.956 |
| B12 | 0.573 |
| B13 | 9.83 |
